The supplement of paper PMC9732359
± gives the uncertainty stated by the source.

Assay: protein stability index of a GFP-peptide fusion (yeast GPS) (PSI 1-4); higher = more stable; sorted into four equal gates, so the index is relative within each strain
Outline: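 Plasmids in a pooled yeast library fused tiled 17-residue yeast protein peptides downstream of GFP and also expressed Cherry. Mid-log cultures grown without leucine were sorted into four equal gates by GFP/Cherry fluorescence ratio. Each gate's plasmids were PCR-amplified and Illumina-sequenced, and reads were matched to strains by barcodes. The protein stability index is derived by multiplying each gate's read frequency by its gate number and summing the results.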

Sequence	protein stability index (doa10∆)	protein stability index (pdr5∆)	protein stability index (san1∆)	protein stability index (ubr1∆)
VQSGQIYINKSVPTNSA [RET1]	3.29 ± 0.14	3.32 ± 0.082	3.35 ± 0.091	3.33 ± 0.086
APKIHILDPSTEYCVGD [YMR129W/POM152]	2.91 ± 0.13	3.35 ± 0.092	2.97 ± 0.087	2.79 ± 0.13
KGRKTNKYANNDFANNL [CSL4]	3.28 ± 0.066	3.14 ± 0.053	3.13 ± 0.051	3.15 ± 0.095
SRSSVCVKAIEALFQSR [YCG1]	3.14 ± 0.064	2.92 ± 0.085	3.04 ± 0.077	2.97 ± 0.066
ELDSKTRKILEILNECH [MED4]	3.21 ± 0.074	3.22 ± 0.06	3.27 ± 0.037	3.21 ± 0.043
YPEVVTPYNIDRLTQLV [RPO21]	2.56 ± 0.2			
LEVANDLQLLYVESDED [IRR1]	1.43 ± 0.13	1.21 ± 0.091	1.42 ± 0.2	1.13 ± 0.046
GQGYRKVGIWPYFDYIF [YJL039C/NUP192]	3.37 ± 0.14	3.21 ± 0.12	3.03 ± 0.12	2.62 ± 0.17
NYLLKRNEDARRNLRYG [RPO31]	3.35 ± 0.1	3.41 ± 0.094	3.51 ± 0.12	3.56 ± 0.056
RRRLLGPAAAKPMAFSN [MTR3]	3.06 ± 0.071	3.17 ± 0.055	3.23 ± 0.057	3.21 ± 0.038
TESNELIQKLQNSANNN [IRR1]	2.93 ± 0.11	3.02 ± 0.082	3.24 ± 0.053	3.09 ± 0.17
MSLSNKTVKELRQLLKE [RRI1]	1.95 ± 0.094	1.42 ± 0.083	1.28 ± 0.11	1.85 ± 0.15
KDHLLGRLASTIAKQVL [RPL16B]	1.66 ± 0.085	1.57 ± 0.092	1.25 ± 0.14	1.3 ± 0.066
NTVDGDLLKLVHLSNGY [FAS1]	2.86 ± 0.07	2.52 ± 0.056	2.31 ± 0.076	2.46 ± 0.064
NTLLQQQNYSKVLLPSI [SWI1]	2.07 ± 0.077	2.9 ± 0.11	2.79 ± 0.076	3.09 ± 0.095
KNAAESSYMGKHWTEKS [PRP28]	3.17 ± 0.12	3.24 ± 0.17		3.46 ± 0.11
FGSADDTYPYLTGEWST [FAS1]	2.32 ± 0.067	1.32 ± 0.047	1.21 ± 0.086	1.28 ± 0.072
LSTRELAGKVGSIRVHK [RPC53]	1.61 ± 0.18	1.26 ± 0.11		
SHFDYNTLEFIIEQLSI [YCG1]	2.48 ± 0.078	2.62 ± 0.12	2.18 ± 0.14	2.37 ± 0.086
IAKIKKVCECVCMHCGK [RPO21]	1.92 ± 0.057	2.28 ± 0.067	2.7 ± 0.091	2.43 ± 0.046
KSTDNSAIRQVFERFKT [IRR1]	2.21 ± 0.046	2.7 ± 0.046	2.19 ± 0.062	2.8 ± 0.045
EGNYRNLNNLKQENAYL [RPB8]	3.31 ± 0.084	3.31 ± 0.085	3.27 ± 0.08	3.43 ± 0.068
MGPLYQNFAEFMTKLLE [IRR1]	2.27 ± 0.11	1.82 ± 0.11	3.03 ± 0.13	2.04 ± 0.15
SFLGEAKSMAFLKEVLS [YML103C/NUP188]			2.48 ± 0.18	2.54 ± 0.21
MKMDKSPTESYSDIGGL [RPT2]	3.21 ± 0.096	3.4 ± 0.096	3.38 ± 0.055	3.05 ± 0.059
ISYKKGAASNRTKFVRS [RPL36A]	3.06 ± 0.1	3.2 ± 0.1	3.13 ± 0.11	3.26 ± 0.22
KITDKEDLLHYIEEKHP [POP4]	3.48 ± 0.1	3.3 ± 0.064	3.23 ± 0.057	3.24 ± 0.076

Sequence	protein stability index (doa10∆)	protein stability index (pdr5∆)	protein stability index (san1∆)	protein stability index (ubr1∆)
KPDSDIVALSSEEINQY [PRE6]	3.12 ± 0.05	3.03 ± 0.047	3.185 ± 0.03	3.17 ± 0.034
HCDKCSVVLTLQAFGES [RPB3]	3.1 ± 0.15	3.19 ± 0.14	2.47 ± 0.19	2.6 ± 0.17
LTVAMYINSDSVNPAML [RPO31]	2.4 ± 0.11	2.47 ± 0.11	2.69 ± 0.14	2.68 ± 0.082
DEDIITIFKYLTDKDAF [CDC53]	2.91 ± 0.14	3.15 ± 0.11	3.21 ± 0.061	3.19 ± 0.059
EDEDEDDETPSCEVEEI [SNU114]	3.05 ± 0.051	2.22 ± 0.05	2.99 ± 0.056	2.85 ± 0.044
SLTDVAFFTYDAGVTFN [ECM29]	2.66 ± 0.065	2.34 ± 0.057	2.82 ± 0.063	2.6 ± 0.068
SLTRDFEQCCKEKKELQ [YIL149C/MLP2]	2.87 ± 0.089	3.01 ± 0.089	3 ± 0.1	3.14 ± 0.11
ENIENEEYVINLLKVSV [ECM29]	1.96 ± 0.12	3.23 ± 0.19		3.1 ± 0.11
KTYEPVLNEDDLAFGGE [RPN5]	3.27 ± 0.09	3.1 ± 0.089	3.29 ± 0.058	3.51 ± 0.12
PTFVEFILIPLYKIFSY [SNU114]	1.98 ± 0.045	1.73 ± 0.054	1.62 ± 0.073	1.63 ± 0.044
VHPRKSYKMNSSAADIT [PRP8]	2.77 ± 0.079	2.88 ± 0.075	2.88 ± 0.053	2.74 ± 0.058
VGRLWDQTFPINCNKET [ECM29]	3.03 ± 0.14	2.87 ± 0.12	3.07 ± 0.11	3.09 ± 0.1
QRRCLHCGALNGVVKKA [RPO31]	2.35 ± 0.13	2.54 ± 0.13	2.41 ± 0.12	2.59 ± 0.11
QWGKYQTFGVDILAKLF [SWI1]	2.25 ± 0.079	2.54 ± 0.063	2.43 ± 0.062	2.27 ± 0.053
SEAEYSKDIETLKKEWL [YIL149C/MLP2]	3.26 ± 0.083	3.04 ± 0.085	3.13 ± 0.051	3 ± 0.049
LRPGRIDRKVEFSLPDL [RPT1]	3.19 ± 0.098	3.35 ± 0.098	3.2 ± 0.16	3.18 ± 0.098
NRERFISKLFLRGDSVI [SMD2]	2.91 ± 0.076	1.65 ± 0.089	1.51 ± 0.14	3.03 ± 0.15
ARLDGHDFLFNTIIRDG [RPN14]	2.83 ± 0.091	2.95 ± 0.06	3.32 ± 0.056	2.81 ± 0.044
TEAGFFAIRDDRDHINP [RPT4]	2.49 ± 0.08	2.99 ± 0.072	3.12 ± 0.058	3.27 ± 0.045
GTPEATKGMITNLQRNV [NUT2]	2.95 ± 0.15	2.85 ± 0.12	2.94 ± 0.15	3.09 ± 0.19
FDFLMNMPNCDYLTLNK [RPN2]	2.76 ± 0.054	2.31 ± 0.068	2.07 ± 0.076	1.74 ± 0.039
QIRDVMERFSVLCNSNI [RRP6]	2.41 ± 0.11	2.82 ± 0.11	2.18 ± 0.15	2.38 ± 0.084
GRVTFIPLNRLSLDSDV [SMC3]	2.65 ± 0.09	2.9 ± 0.053	2.85 ± 0.063	3.09 ± 0.058
KDPVDFVRQAAMIALSM [RPN2]	1.42 ± 0.082	2.21 ± 0.14	1.81 ± 0.17	1.97 ± 0.13
LRKSRETVKLPRVSNQS [RRI2]		3.42 ± 0.22		
DASTPLRSTENGIVDQV [RPB2]	2.94 ± 0.12	3.33 ± 0.1	3.34 ± 0.06	3.47 ± 0.092
VQSKARYTVRTFGIRRN [RPL11A]	1.78 ± 0.083	1.86 ± 0.073	1.35 ± 0.11	1.53 ± 0.086
